# Results reported in patent US20240383984A1 (Genentech, published 2024).
# T1: cynomolgus E11 domain protein (cynomolgus monkey)
# T1 construct: whole entry named; also called cyno E11
# T1 chain: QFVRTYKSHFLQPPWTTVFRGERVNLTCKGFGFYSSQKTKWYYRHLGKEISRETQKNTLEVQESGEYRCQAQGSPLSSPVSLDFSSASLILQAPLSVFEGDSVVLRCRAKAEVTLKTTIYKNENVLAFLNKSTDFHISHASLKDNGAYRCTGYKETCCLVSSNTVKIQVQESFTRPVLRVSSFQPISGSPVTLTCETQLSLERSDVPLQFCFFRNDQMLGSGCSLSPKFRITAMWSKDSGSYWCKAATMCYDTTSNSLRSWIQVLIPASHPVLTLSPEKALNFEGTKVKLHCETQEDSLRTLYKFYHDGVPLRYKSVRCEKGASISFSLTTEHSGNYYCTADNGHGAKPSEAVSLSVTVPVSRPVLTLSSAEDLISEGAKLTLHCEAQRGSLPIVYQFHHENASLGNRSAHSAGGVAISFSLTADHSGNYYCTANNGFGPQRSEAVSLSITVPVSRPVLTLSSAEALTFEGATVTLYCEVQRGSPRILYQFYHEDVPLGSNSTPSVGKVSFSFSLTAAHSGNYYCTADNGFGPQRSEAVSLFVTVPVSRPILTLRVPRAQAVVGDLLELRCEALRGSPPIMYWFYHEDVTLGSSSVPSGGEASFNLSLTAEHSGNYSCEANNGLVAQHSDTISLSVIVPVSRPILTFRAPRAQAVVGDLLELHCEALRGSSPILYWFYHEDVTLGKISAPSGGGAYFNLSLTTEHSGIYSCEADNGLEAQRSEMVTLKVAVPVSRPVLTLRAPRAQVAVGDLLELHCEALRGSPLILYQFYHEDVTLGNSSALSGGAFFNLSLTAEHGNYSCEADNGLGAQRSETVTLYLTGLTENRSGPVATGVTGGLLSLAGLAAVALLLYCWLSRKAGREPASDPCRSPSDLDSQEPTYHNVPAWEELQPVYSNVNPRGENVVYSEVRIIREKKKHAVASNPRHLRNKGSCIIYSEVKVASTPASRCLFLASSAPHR
# T2: cynomolgus FcRH5 (full-length, on cells) (cynomolgus monkey)
# T2 construct: also called SVT2-Cyno-FcRH5; cyno FcRH5
# T2 chain: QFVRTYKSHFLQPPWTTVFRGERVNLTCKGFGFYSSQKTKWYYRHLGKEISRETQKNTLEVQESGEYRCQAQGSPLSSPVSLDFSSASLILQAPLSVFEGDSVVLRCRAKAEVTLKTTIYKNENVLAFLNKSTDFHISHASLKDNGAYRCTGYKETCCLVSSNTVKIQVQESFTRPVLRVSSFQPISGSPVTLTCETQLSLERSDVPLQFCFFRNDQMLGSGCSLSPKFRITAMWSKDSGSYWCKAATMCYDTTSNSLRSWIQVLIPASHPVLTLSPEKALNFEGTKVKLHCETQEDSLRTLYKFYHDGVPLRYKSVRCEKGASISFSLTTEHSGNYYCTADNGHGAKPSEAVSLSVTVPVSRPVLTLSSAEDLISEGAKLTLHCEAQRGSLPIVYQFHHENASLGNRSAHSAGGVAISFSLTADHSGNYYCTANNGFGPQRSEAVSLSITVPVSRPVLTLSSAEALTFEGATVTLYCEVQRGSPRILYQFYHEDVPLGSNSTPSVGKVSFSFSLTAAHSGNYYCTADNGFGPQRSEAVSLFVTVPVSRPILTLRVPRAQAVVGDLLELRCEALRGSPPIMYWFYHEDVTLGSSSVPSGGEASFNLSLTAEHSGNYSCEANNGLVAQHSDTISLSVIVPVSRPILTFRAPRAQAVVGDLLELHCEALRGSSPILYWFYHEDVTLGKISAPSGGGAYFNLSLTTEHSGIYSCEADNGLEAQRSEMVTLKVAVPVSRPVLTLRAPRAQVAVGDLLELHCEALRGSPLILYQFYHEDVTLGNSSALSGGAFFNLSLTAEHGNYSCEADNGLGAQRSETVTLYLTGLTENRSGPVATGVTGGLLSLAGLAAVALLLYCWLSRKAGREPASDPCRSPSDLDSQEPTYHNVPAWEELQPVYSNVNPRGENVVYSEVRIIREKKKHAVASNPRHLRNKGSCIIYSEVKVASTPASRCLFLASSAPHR
# T3: cynomolgus FcRH5 protein fragment (soluble) (cynomolgus monkey)
# T3 construct: whole entry named; also called Cyno FcRH5 (BIACORE analyte)
# T3 chain: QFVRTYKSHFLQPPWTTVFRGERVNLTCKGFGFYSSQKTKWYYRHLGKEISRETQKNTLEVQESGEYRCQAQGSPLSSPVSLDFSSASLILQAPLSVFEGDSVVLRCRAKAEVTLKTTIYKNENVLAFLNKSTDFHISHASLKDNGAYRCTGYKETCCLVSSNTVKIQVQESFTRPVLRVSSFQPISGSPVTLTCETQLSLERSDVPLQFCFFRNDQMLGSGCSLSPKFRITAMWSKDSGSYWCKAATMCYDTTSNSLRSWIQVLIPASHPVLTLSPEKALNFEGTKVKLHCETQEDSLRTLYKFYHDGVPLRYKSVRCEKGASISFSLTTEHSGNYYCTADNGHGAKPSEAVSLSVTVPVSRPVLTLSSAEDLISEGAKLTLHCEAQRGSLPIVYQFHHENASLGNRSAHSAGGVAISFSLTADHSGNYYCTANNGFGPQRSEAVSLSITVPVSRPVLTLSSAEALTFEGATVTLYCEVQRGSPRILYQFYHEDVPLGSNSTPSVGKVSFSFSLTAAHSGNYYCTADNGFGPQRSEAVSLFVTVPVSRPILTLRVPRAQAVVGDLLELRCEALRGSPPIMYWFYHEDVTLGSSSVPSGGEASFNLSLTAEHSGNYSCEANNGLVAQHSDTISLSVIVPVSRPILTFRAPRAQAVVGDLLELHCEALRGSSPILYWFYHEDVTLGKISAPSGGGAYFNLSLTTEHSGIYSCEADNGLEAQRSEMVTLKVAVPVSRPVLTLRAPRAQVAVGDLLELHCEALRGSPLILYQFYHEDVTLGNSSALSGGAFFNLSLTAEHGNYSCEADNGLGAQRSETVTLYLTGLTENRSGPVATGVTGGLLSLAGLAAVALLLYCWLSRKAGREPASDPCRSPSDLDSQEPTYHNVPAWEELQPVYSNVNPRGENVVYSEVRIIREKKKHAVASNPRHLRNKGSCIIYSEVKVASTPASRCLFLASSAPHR
# T4: 293-FcRH5-DEL (human, UniProt Q96RD9)
# T4 construct: domain 9 deletion, expressed on 293 cells
# T4 sequence (receptor, looked up): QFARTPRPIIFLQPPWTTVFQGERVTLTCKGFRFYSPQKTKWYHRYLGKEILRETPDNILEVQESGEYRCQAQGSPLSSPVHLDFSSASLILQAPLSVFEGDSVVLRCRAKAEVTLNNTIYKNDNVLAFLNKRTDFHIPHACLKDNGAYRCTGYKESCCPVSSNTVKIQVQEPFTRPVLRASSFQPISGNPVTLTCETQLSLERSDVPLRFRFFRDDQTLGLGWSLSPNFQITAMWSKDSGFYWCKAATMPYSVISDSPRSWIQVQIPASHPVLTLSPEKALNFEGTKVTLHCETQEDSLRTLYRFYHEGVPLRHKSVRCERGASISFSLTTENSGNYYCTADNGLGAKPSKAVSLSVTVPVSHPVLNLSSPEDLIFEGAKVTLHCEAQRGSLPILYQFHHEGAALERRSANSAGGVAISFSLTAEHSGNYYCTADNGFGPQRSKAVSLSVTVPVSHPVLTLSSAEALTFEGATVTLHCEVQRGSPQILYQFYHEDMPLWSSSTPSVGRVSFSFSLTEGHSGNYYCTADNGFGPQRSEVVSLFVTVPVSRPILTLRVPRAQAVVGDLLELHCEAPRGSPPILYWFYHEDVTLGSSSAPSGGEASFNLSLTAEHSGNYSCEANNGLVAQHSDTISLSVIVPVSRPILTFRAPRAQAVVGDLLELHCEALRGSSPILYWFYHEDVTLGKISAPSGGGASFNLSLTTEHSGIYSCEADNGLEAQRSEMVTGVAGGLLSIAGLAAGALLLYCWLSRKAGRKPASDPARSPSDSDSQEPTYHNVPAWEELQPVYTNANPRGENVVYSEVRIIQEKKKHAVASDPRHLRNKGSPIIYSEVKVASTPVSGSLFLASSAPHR
# Columns and labels:
# [1] = target: T1, cynomolgus E11 domain protein; assay: SPR, IgG capture
# Experimental: Briefly, test antibodies were captured on flow cells 2, 3 or 4 with flow cell 1 as a reference on a protein A Series S CM5 chip (GE Life Sciences, Piscataway, NJ). An FcRH5 protein fragment was used as analyte, with a flow rate of 30 μl/minute. Between injections the capture surface was regenerated by a 30 second injection of 10 mM glycine, pH 1.5 at a flow rate of 10 μl/minute. Interactions were assessed at 25° C. in 10 mM HEPES pH 7.4, 150 mM NaCl, 0.05% Tween 20 (HBSP). Reference data from the reference flow cell and from injection of buffer alone was subtracted prior to kinetic analysis. Kinetic information was calculated by fitting data to a 1:1 binding model. Reference subtraction and data fitting were performed using BIAevaluation software (GE Life Sciences, Piscataway, NJ).
# [2] = target: T2, cynomolgus FcRH5 (full-length, on cells); assay: FACS, SVT2 cells
# [3] = target: T3, cynomolgus FcRH5 protein fragment …; assay: BIACORE
# 293-FcRH5-DEL = target: T4, 293-FcRH5-DEL; assay: flow cytometry on 293 cells with domain 9-deleted FcRH5, PE-labelled secondary
binder,measurement,setting,value
"15G8 (antibody, mouse IgG2a, V domains shown, mouse mAb, Campaign C; recombinant murine IgG2a for SPR; also called mAb 15G8) VH: EVQLQQSGPELVKPGASVKMSCKASGYTFTNYVIHWMKQKPGQGLEWIGYISPYNDYTKYNEKFEGKATLTSDKSSNTAYMELSSLTSEDSAVYYCARRDYYGSSDYWGQGTTLTVSS VL: QIVLTQSPAIMSASPGEKVTMTCSASSSVDYMHWYQQKSGTSPKKWIYDTSKLASGVPARFSGSGSGTSYSLTIGSMEAEDAATYYCQQWSSNPPTFGGGTKLEIK",KD difference between human and cynomolgus E11 domains,[1],~20 fold
"17B1 (antibody, mouse IgG2a, V domains shown, mouse mAb, Campaign C; recombinant murine IgG2a for SPR) VH: QVQLQQSGPELVRPGVSVKISCKGSGYTFTHYAMHWVKQSHTKSLEWIGMISSSSGNTNFNQKFMDKATMTVDKSSTTAYLELARLTFGDSAIYYCARWSYYALFDYWGQGTTVTVSS VL: ENVLTQSPAIMSASPGEKVTMTCSADSSVDYIHWYQQKSNTSPKLWIYDTSKLASGVPGRFSGSGSGNSYSLTISSMEAEDFATYYCFQGSGYPLTFGSGTKLELK",binding result,[2],binds
"1G7.v85/38E4.v1 TDB (bispecific antibody, V domains shown, knob-into-hole TDB; also called 1G7.v85 TDB; 1G7.v85 (TDB format)) VH 1: EVQLVESGPGLVKPSETLSLTCTVSGFSLTRFGVHWVRQPPGKGLEWLGVIWRGGSTDYNAAFVSRLTISKDNSKNQVSLKLSSVTAADTAVYYCSNHYYGSSDYALDNWGQGTLVTVSS VL 1: DIQMTQSPSSLSASVGDRVTITCKASQDVRNLVVWFQQKPGKAPKLLIYSGSYRYSGVPSRFSGSGSGTDFTLTISSLQPEDFATYYCQQHYSPPYTFGQGTKVEIK VH 2: EVQLVQSGAEVKKPGASVKVSCKASGFTFTSYYIHWVRQAPGQGLEWIGWIYPENDNTKYNEKFKDRVTITADTSTSTAYLELSSLRSEDTAVYYCARDGYSRYYFDYWGQGTLVTVSS VL 2: DIVMTQSPDSLAVSLGERATINCKSSQSLLNSRTRKNYLAWYQQKPGQSPKLLIYWTSTRKSGVPDRFSGSGSGTDFTLTISSLQAEDVAVYYCKQSFILRTFGQGTKVEIK",Kd,[3],7.8 nM
same,binding result,293-FcRH5-DEL,no binding
